Laboratory results: the supplement of paper PMC10567573

B1: ESRRG (parent)
chain: YSCPATNECEITKRRRKSCQACRF

Variants of: B1
Assay: protein stability index of a GFP-peptide fusion (GPS, HEK-293T) (PSI 1-6); higher = more stable
Details: c terminus: a fixed tail appended
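Note: lentivirally expressed fusions sorted by FACS into six bins by GFP to DsRed ratio, PSI derived from sequencing read proportions per bin multiplied by bin number.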

Row | Variant | protein stability index
1 | YSCPATNECEITKRRRKVCQACRF [S18V] | 3.08
2 | YSCPATNECEITWRRRKSCQACRF [K13W] | 2.52
3 | YSCPATNECEITKRRDKSCQACRF [R16D] | 3.75
4 | YSCPATNECERTKRRRKSCQACRF [I11R] | 3.37
5 | YSCPATNECCITKRRRKSCQACRF [E10C] | 3.06
6 | YSCPATNECEITKRRRKSCQWCRF [A21W] | 2.55
7 | YYCPATNECEITKRRRKSCQACRF [S2Y] | 2.89
8 | YSCPATNFCEITKRRRKSCQACRF [E8F] | 1.91
9 | YSCPATNECEITKRQRKSCQACRF [R15Q] | 3.38
10 | YSCPATNECEITKRRRKSCQECRF [A21E] | 3.43
11 | YSCPATNECEITKRRCKSCQACRF [R16C] | 3.72
12 | YSCPATNECEITFRRRKSCQACRF [K13F] | 2.67
13 | YSCPATNEKEITKRRRKSCQACRF [C9K] | 3.91
14 | YSCPATNECEITKRLRKSCQACRF [R15L] | 2.79
15 | KSCPATNECEITKRRRKSCQACRF [Y1K] | 3.92
16 | YSCPATNECEITKRNRKSCQACRF [R15N] | 3.62
17 | YSCPATNHCEITKRRRKSCQACRF [E8H] | 3.14
18 | YSCPATNECEPTKRRRKSCQACRF [I11P] | 3.58
19 | YSCPATSECEITKRRRKSCQACRF [N7S] | 3.01
20 | YSCPATKECEITKRRRKSCQACRF [N7K] | 3.57
21 | YSCPATNECEITKRRRKSCQACRC [F24C] | 3.62
22 | YSCPDTNECEITKRRRKSCQACRF [A5D] | 3.38
23 | YSKPATNECEITKRRRKSCQACRF [C3K] | 3.83
24 | YSCPATNEHEITKRRRKSCQACRF [C9H] | 3.68

Row | Variant | protein stability index
25 | YSCPATNECEITKRRNKSCQACRF [R16N] | 3.69
26 | SSCPATNECEITKRRRKSCQACRF [Y1S] | 4.28
27 | YSWPATNECEITKRRRKSCQACRF [C3W] | 2.83
28 | YSCPATNECEITKMRRKSCQACRF [R14M] | 3.09
29 | YSCPARNECEITKRRRKSCQACRF [T6R] | 3.46
30 | YSCPATNECEITKRRRKACQACRF [S18A] | 3.58
31 | YSCPATNECEITTRRRKSCQACRF [K13T] | 3.2
32 | YSCPATNECEITKRRRKSCQACGF [R23G] | 3.79
33 | YSCPATNECEITKRRRKSCQKCRF [A21K] | 3.63
34 | YSCPATNECEITKRRRKSCQAMRF [C22M] | 2.9
35 | YSCPATNECEITKRRRLSCQACRF [K17L] | 3.06
36 | YSCPATNECEITYRRRKSCQACRF [K13Y] | 2.78
37 | YSCPATNECEITKRRVKSCQACRF [R16V] | 3.32
38 | YSCPATNECEITKRKRKSCQACRF [R15K] | 2.91
39 | YSCPATNECEIDKRRRKSCQACRF [T12D] | 3.74
40 | YSCPATNECWITKRRRKSCQACRF [E10W] | 2.22
41 | YSCPATNECEITKRRRKSCGACRF [Q20G] | 3.53
42 | VSCPATNECEITKRRRKSCQACRF [Y1V] | 3.93
43 | YSCPATNECEITKRRRKSCNACRF [Q20N] | 3.52
44 | CSCPATNECEITKRRRKSCQACRF [Y1C] | 4.88
45 | YSCPATNECEATKRRRKSCQACRF [I11A] | 3.39
46 | YSCPATNRCEITKRRRKSCQACRF [E8R] | 3.13
47 | YSPPATNECEITKRRRKSCQACRF [C3P] | 3.58
48 | YSCPATNECEITKRRRKSCQACRN [F24N] | 4.28

Row | Variant | protein stability index
49 | YSCPATNWCEITKRRRKSCQACRF [E8W] | 1.96
50 | YSCPATNECEIFKRRRKSCQACRF [T12F] | 2.19
51 | YSCPATNECEITKRRRKSCQACFF [R23F] | 2.33
52 | YSCPATNECETTKRRRKSCQACRF [I11T] | 3.69
53 | YSCPATNECEITKNRRKSCQACRF [R14N] | 3.63
54 | YSCPATNECEITKRRRKSHQACRF [C19H] | 3.69
55 | YSCPATNECEETKRRRKSCQACRF [I11E] | 3.95
56 | YSCPATNECYITKRRRKSCQACRF [E10Y] | 2.39
57 | YSCPATNECEITKRFRKSCQACRF [R15F] | 2.96
58 | YSCPAINECEITKRRRKSCQACRF [T6I] | 3.31
59 | YSCPATNPCEITKRRRKSCQACRF [E8P] | 3.26
60 | YSCPATNECGITKRRRKSCQACRF [E10G] | 3.23
61 | YSCPATNECEITKRRRGSCQACRF [K17G] | 3.51
62 | YSCPATNECEITKRRRKSCQLCRF [A21L] | 2.31
63 | YSCPATLECEITKRRRKSCQACRF [N7L] | 2.74
64 | YSCPATNECEITKRIRKSCQACRF [R15I] | 3.32
65 | YSCPITNECEITKRRRKSCQACRF [A5I] | 3.01
66 | YSCPATNECEITKRRRKSCLACRF [Q20L] | 2.53
67 | YSCPATNECEITKRRRKECQACRF [S18E] | 3.43
68 | YSCPATNECEITKRRRKSCIACRF [Q20I] | 2.2
69 | YRCPATNECEITKRRRKSCQACRF [S2R] | 4.17
70 | YSCPATNECEIPKRRRKSCQACRF [T12P] | 3.86
71 | YSCPATNECEITKRRPKSCQACRF [R16P] | 3.24
72 | YSCPATNECEITDRRRKSCQACRF [K13D] | 3.68

Row | Variant | protein stability index
73 | YSCPATNVCEITKRRRKSCQACRF [E8V] | 3.05
74 | YSCPATNECEITKRRKKSCQACRF [R16K] | 3.62
75 | YSCPATDECEITKRRRKSCQACRF [N7D] | 3.31
76 | YSCPATNECEITKRRRKRCQACRF [S18R] | 3.8
77 | YSCPATNECEITKRRRKSCQAARF [C22A] | 3.47
78 | YSCPATNECEINKRRRKSCQACRF [T12N] | 3.59
79 | YSCPATNECEITKRRRKSCQAQRF [C22Q] | 3.67
80 | YSCPATNECEITKRRRKHCQACRF [S18H] | 3.48
81 | YSCPATNECNITKRRRKSCQACRF [E10N] | 3.41
82 | YSCPATNACEITKRRRKSCQACRF [E8A] | 3.46
83 | YSCPATNTCEITKRRRKSCQACRF [E8T] | 3.25
84 | YSCPATNECRITKRRRKSCQACRF [E10R] | 3.44
85 | YSCPATNECEITKRRRKSCQACRL [F24L] | 3.61
86 | YSCPATNECEICKRRRKSCQACRF [T12C] | 3.85
87 | YSCPATNNCEITKRRRKSCQACRF [E8N] | 3.29
88 | YSCGATNECEITKRRRKSCQACRF [P4G] | 2.93
89 | YSCPMTNECEITKRRRKSCQACRF [A5M] | 3
90 | YSCIATNECEITKRRRKSCQACRF [P4I] | 2.53
91 | YSCHATNECEITKRRRKSCQACRF [P4H] | 2.91
92 | YNCPATNECEITKRRRKSCQACRF [S2N] | 3.4
93 | PSCPATNECEITKRRRKSCQACRF [Y1P] | 4.32
94 | YSCPATNECEITPRRRKSCQACRF [K13P] | 3.46
